Measurements: PMC4628882

Legend:
[1] = target: mouse melanocortin 1 receptor (mouse) (UniProt Q01727)
[2] = target: mouse melanocortin 3 receptor (mouse) (UniProt P33033)
[3] = target: mouse melanocortin 4 receptor (mouse) (UniProt P56450)
[4] = target: mouse melanocortin 5 receptor (mouse) (UniProt P41149)
Chain of UniProt P41149 (P41149 whole entry): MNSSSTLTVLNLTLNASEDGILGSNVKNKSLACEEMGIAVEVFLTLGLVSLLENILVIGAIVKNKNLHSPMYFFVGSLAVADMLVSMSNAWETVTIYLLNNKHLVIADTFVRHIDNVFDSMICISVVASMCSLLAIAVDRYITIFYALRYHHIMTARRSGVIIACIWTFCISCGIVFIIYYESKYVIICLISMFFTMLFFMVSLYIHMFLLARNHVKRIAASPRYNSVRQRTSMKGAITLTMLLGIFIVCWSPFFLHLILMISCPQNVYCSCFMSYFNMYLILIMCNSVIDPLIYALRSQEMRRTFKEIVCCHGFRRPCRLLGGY

Chain of UniProt Q01727 (Q01727 whole entry): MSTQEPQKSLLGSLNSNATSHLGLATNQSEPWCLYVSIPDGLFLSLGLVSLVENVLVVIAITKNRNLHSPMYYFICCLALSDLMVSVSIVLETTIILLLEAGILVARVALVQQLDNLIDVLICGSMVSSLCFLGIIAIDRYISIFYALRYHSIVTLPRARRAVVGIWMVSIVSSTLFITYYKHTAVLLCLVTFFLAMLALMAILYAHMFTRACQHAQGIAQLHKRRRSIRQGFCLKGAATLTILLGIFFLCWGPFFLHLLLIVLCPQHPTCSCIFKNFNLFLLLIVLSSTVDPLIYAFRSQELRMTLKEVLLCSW
Chain of UniProt P56450 (P56450 whole entry): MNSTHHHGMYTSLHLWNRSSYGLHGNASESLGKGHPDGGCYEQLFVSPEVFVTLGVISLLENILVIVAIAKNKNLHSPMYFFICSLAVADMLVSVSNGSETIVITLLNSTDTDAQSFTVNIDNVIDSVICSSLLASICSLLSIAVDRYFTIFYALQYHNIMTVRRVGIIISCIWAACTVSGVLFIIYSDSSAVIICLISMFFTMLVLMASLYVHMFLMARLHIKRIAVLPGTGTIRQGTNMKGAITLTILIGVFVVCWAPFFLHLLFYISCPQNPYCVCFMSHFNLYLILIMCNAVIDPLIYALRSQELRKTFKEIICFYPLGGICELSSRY
Chain of UniProt P33033 (P33033 whole entry): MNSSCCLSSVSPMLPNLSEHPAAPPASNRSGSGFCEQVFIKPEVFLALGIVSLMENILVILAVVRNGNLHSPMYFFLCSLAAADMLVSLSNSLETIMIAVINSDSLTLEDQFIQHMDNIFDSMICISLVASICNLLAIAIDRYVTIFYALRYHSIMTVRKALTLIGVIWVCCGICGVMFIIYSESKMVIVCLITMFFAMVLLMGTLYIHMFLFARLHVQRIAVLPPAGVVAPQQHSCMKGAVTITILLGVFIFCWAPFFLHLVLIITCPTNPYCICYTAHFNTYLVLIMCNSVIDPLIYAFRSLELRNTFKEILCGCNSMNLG

Substance	agonist EC50, AlphaScreen cAMP assay on stably transfected HEK293 cells [1] [nM]	agonist EC50, AlphaScreen cAMP assay on stably transfected HEK293 cells [2] [nM]	agonist EC50, AlphaScreen cAMP assay on stably transfected HEK293 cells [3] [nM]	agonist EC50, AlphaScreen cAMP assay on stably transfected HEK293 cells [4] [nM]
α-MSH (peptide)	0.14	0.5	2.9	0.51
ClpB(535-548) (from UniProt P63284 535-548) (peptide)	41000			
